B1: Protein KASH5 (Mus musculus), Q80VJ8 (parent)
chain: MHSILRSSLSSREALRMRQLKGLRKERPGRHPLGVRLRAIWTSFLFPNPPHSGGKLRASTAAVEEHQEWSMDLPEGQAGGPTAQMYLWEQPEEASSRPLLSLEEQILNSTFEACDPHKTGTVTVAHLLAYLEAVTGQGPQDVRLQTLARSLDPYGEGAGATVELDTFLVVMRDWIAACQLQGGLERAEETAYEGALASPHLPSVCPEAEESANLESFGGEDPRPEGPATAELLSNLEDLELSNRRLAGENAKLQRSVETAEEGSARLGEEITALRKQLRSTQQALQVAKALDEELEDLKTLAKSLEEQNRSLMAQARHTEKEQQHLAAEVETLQEENEKLLAERDGVKRRSEELATEKDALKRQLCECERLICQREAVLSERTRHAESLARTLEEYRTTTQELRQEISNLEEQLSQSQEGPEELLEGAEAGRVGWIMALPPSLDLEIQAIRQEQDVASAGLSSPLYGVWQWEEVEPEPEPEPEPEPEPEPQEVEFPSEDPARQQTDLQREPVRALEGSRAPCLRLSRSQEEEEEEEESWVLADPSSPLGTYHHKLAPGSSRESCHIVPEMHQALMPVVRDLVPVERSRTQHCLHPQHSPGIRISQHPLVPTPVLGLLLLLLLSILLFSQSPPPTWPHLQLYYLQPPPV
partner: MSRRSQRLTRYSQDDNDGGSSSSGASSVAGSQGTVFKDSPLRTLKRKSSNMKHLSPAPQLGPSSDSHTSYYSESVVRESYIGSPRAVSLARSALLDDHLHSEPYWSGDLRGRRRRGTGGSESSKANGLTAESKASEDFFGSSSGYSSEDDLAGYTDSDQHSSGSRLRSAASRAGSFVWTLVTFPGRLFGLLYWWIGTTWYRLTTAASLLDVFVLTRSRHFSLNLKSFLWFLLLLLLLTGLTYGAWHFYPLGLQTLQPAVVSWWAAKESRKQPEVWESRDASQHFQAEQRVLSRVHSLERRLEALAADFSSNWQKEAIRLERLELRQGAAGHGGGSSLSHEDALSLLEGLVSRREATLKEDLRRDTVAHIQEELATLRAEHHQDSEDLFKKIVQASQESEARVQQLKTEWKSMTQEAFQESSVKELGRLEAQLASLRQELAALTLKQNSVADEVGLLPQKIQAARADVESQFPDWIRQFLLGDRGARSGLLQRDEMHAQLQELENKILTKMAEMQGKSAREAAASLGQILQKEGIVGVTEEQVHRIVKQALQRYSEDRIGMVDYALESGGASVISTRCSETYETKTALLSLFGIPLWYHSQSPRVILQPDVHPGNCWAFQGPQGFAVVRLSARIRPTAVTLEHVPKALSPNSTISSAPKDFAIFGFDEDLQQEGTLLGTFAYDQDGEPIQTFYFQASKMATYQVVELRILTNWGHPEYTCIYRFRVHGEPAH
B2: Protein KASH5 (Mus musculus), Q80VJ8 (parent)
chain: B1 chain
partner: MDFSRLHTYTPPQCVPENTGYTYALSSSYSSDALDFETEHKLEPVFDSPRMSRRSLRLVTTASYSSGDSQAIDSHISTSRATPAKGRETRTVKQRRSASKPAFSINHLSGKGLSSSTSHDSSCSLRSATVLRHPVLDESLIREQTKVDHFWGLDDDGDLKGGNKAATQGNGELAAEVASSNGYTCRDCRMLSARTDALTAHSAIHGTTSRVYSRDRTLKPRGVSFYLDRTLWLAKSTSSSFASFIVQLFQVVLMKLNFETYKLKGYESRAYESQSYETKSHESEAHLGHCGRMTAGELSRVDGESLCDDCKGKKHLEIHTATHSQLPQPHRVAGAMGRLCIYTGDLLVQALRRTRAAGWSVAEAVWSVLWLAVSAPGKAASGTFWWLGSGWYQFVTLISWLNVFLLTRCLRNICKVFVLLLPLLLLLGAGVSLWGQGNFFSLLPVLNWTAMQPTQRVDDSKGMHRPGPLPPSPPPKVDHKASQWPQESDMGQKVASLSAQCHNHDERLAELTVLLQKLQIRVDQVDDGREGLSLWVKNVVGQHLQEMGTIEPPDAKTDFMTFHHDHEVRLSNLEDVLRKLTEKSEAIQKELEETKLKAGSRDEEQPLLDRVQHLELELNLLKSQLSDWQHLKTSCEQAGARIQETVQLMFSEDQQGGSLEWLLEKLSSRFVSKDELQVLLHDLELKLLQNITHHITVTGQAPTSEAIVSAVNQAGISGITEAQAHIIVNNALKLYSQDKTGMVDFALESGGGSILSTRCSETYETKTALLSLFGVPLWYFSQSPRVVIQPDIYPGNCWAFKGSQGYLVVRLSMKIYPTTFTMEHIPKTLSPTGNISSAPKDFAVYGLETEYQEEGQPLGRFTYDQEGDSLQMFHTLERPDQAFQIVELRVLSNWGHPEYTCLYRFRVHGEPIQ
B3: Protein KASH5 (Mus musculus), Q80VJ8 (parent)
chain: B1 chain

Variants of: B1
Settings: with sun2_mouse Sun2, Q8BJS4

| Variant | effect of a mutation on the interaction |
| --- | --- |
| P645A;P646A;P647A | disrupting interaction strength |

Variants of: B2
Settings: with sun1_mouse Sun1, Q9D666

| Variant | effect of a mutation on the interaction |
| --- | --- |
| P645A;P646A;P647A | disrupting interaction strength |

Variants of: B3
Settings: with sun1_human SUN1, O94901
Sequence of sun1_human SUN1, O94901 (O94901 whole entry): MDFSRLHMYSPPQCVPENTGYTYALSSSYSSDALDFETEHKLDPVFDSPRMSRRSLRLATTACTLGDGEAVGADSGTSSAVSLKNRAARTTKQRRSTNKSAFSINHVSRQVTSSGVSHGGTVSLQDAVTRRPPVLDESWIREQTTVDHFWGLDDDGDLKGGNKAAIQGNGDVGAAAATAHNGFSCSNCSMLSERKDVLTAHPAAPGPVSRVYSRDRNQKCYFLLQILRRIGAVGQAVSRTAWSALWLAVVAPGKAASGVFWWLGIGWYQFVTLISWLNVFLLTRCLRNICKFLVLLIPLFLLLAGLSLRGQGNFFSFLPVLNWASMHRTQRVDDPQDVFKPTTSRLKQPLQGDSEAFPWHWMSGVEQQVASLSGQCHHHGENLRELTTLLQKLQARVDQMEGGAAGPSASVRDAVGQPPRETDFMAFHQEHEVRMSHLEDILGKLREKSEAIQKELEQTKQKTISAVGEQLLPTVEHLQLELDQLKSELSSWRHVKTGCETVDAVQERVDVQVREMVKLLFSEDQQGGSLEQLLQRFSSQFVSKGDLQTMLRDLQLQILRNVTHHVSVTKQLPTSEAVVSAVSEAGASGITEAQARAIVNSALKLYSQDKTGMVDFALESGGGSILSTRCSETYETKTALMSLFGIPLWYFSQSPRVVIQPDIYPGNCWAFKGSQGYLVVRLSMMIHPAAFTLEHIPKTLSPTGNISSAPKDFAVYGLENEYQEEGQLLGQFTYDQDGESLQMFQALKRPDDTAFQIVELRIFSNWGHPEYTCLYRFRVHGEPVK

| Variant | effect of a mutation on the interaction |
| --- | --- |
| P645A;P646A;P647A | disrupting interaction |

Reference: IntAct's records for PubMed 22826121
